The target in assay [1] is T1, collagenase-3 receptor (170 kDa protein) of mouse embryo fibroblasts MEF-1 and MEF-2 (mouse, UniProt Q64449 31-1479).
T1 construct: whole, on cells
T1 sequence (looked up): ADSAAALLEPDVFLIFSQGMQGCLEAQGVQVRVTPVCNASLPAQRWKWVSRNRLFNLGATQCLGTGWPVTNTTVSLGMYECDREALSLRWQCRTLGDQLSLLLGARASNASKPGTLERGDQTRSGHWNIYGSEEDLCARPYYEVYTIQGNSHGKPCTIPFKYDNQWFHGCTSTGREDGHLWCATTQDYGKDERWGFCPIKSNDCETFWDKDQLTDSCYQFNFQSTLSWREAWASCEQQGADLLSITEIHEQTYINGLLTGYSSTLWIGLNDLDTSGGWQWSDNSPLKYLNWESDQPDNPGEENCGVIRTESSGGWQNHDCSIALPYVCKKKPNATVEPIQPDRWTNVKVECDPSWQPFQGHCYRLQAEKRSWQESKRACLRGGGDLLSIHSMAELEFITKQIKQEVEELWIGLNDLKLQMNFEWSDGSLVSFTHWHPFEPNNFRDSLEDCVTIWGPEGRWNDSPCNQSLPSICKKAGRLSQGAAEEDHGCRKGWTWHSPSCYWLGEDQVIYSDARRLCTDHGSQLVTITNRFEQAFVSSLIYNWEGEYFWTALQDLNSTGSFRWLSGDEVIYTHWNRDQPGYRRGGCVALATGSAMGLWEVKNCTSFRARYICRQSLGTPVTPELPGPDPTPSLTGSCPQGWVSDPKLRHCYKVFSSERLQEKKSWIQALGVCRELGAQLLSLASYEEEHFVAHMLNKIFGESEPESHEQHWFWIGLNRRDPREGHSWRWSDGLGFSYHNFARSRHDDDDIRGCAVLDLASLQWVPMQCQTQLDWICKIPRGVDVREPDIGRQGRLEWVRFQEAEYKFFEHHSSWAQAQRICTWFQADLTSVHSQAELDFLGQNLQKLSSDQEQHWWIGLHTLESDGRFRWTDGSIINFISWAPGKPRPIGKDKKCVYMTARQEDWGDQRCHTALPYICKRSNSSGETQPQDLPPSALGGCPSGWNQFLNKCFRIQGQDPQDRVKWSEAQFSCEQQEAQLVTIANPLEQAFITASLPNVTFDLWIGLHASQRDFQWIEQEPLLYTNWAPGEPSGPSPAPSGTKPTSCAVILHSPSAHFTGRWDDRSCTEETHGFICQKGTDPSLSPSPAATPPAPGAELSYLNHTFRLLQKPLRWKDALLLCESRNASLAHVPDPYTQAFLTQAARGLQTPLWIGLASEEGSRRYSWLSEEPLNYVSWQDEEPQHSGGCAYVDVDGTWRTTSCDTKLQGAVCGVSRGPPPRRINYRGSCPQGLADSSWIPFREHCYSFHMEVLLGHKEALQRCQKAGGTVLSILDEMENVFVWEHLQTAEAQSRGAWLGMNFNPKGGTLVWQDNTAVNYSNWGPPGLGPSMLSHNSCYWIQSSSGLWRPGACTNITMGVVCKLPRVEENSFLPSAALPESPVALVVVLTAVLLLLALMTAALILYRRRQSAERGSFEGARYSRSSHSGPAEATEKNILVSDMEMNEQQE
Put plainly: competition with ^125I mouse collagenase-3 on MEF-2 (LRP null) cells; 200-, 400- and 800-fold excess of competitor. An excerpt: This sequence corresponds to a published low density lipoprotein receptor-related protein consensus binding sequence.

Assay [2] has as its target T2, low density lipoprotein receptor-related protein of rat cells (UMR 106-01, normal rat osteoblasts) (rat).
T2 construct: whole, on cells; On blotted membranes in ligand and Western blots; also called LRP; 600 kDa protein
Put plainly: Scatchard analysis of ^125I-mMMP-13 binding to UMR106-01 cells; lower affinity site (ostensibly the low density lipoprotein receptor-related protein).

The target in assay [3] is T2, low density lipoprotein …. Description: computer analysis of ^125I-mMMP-13 binding to UMR106-01 cells; lower affinity site.
Assay [4] has as its target T3, rat collagenase-3 receptor (170 kDa protein) of UMR 106-01 rat osteosarcoma cells and other rat cells (rat).
T3 construct: whole, on cells; on blotted cell membranes in the ligand blots; also called collagenase receptor; rat collagenase receptor
Description: from the Scatchard analysis on UMR 106-01 cells.

The target in assay [5] is T3, rat collagenase-3 receptor (170 kDa …). Description: Scatchard analysis of ^125I-mMMP-13 binding to UMR106-01 cells; high affinity site (ostensibly the collagenase-3 receptor).

T2 sequence (G3V928 20-3944): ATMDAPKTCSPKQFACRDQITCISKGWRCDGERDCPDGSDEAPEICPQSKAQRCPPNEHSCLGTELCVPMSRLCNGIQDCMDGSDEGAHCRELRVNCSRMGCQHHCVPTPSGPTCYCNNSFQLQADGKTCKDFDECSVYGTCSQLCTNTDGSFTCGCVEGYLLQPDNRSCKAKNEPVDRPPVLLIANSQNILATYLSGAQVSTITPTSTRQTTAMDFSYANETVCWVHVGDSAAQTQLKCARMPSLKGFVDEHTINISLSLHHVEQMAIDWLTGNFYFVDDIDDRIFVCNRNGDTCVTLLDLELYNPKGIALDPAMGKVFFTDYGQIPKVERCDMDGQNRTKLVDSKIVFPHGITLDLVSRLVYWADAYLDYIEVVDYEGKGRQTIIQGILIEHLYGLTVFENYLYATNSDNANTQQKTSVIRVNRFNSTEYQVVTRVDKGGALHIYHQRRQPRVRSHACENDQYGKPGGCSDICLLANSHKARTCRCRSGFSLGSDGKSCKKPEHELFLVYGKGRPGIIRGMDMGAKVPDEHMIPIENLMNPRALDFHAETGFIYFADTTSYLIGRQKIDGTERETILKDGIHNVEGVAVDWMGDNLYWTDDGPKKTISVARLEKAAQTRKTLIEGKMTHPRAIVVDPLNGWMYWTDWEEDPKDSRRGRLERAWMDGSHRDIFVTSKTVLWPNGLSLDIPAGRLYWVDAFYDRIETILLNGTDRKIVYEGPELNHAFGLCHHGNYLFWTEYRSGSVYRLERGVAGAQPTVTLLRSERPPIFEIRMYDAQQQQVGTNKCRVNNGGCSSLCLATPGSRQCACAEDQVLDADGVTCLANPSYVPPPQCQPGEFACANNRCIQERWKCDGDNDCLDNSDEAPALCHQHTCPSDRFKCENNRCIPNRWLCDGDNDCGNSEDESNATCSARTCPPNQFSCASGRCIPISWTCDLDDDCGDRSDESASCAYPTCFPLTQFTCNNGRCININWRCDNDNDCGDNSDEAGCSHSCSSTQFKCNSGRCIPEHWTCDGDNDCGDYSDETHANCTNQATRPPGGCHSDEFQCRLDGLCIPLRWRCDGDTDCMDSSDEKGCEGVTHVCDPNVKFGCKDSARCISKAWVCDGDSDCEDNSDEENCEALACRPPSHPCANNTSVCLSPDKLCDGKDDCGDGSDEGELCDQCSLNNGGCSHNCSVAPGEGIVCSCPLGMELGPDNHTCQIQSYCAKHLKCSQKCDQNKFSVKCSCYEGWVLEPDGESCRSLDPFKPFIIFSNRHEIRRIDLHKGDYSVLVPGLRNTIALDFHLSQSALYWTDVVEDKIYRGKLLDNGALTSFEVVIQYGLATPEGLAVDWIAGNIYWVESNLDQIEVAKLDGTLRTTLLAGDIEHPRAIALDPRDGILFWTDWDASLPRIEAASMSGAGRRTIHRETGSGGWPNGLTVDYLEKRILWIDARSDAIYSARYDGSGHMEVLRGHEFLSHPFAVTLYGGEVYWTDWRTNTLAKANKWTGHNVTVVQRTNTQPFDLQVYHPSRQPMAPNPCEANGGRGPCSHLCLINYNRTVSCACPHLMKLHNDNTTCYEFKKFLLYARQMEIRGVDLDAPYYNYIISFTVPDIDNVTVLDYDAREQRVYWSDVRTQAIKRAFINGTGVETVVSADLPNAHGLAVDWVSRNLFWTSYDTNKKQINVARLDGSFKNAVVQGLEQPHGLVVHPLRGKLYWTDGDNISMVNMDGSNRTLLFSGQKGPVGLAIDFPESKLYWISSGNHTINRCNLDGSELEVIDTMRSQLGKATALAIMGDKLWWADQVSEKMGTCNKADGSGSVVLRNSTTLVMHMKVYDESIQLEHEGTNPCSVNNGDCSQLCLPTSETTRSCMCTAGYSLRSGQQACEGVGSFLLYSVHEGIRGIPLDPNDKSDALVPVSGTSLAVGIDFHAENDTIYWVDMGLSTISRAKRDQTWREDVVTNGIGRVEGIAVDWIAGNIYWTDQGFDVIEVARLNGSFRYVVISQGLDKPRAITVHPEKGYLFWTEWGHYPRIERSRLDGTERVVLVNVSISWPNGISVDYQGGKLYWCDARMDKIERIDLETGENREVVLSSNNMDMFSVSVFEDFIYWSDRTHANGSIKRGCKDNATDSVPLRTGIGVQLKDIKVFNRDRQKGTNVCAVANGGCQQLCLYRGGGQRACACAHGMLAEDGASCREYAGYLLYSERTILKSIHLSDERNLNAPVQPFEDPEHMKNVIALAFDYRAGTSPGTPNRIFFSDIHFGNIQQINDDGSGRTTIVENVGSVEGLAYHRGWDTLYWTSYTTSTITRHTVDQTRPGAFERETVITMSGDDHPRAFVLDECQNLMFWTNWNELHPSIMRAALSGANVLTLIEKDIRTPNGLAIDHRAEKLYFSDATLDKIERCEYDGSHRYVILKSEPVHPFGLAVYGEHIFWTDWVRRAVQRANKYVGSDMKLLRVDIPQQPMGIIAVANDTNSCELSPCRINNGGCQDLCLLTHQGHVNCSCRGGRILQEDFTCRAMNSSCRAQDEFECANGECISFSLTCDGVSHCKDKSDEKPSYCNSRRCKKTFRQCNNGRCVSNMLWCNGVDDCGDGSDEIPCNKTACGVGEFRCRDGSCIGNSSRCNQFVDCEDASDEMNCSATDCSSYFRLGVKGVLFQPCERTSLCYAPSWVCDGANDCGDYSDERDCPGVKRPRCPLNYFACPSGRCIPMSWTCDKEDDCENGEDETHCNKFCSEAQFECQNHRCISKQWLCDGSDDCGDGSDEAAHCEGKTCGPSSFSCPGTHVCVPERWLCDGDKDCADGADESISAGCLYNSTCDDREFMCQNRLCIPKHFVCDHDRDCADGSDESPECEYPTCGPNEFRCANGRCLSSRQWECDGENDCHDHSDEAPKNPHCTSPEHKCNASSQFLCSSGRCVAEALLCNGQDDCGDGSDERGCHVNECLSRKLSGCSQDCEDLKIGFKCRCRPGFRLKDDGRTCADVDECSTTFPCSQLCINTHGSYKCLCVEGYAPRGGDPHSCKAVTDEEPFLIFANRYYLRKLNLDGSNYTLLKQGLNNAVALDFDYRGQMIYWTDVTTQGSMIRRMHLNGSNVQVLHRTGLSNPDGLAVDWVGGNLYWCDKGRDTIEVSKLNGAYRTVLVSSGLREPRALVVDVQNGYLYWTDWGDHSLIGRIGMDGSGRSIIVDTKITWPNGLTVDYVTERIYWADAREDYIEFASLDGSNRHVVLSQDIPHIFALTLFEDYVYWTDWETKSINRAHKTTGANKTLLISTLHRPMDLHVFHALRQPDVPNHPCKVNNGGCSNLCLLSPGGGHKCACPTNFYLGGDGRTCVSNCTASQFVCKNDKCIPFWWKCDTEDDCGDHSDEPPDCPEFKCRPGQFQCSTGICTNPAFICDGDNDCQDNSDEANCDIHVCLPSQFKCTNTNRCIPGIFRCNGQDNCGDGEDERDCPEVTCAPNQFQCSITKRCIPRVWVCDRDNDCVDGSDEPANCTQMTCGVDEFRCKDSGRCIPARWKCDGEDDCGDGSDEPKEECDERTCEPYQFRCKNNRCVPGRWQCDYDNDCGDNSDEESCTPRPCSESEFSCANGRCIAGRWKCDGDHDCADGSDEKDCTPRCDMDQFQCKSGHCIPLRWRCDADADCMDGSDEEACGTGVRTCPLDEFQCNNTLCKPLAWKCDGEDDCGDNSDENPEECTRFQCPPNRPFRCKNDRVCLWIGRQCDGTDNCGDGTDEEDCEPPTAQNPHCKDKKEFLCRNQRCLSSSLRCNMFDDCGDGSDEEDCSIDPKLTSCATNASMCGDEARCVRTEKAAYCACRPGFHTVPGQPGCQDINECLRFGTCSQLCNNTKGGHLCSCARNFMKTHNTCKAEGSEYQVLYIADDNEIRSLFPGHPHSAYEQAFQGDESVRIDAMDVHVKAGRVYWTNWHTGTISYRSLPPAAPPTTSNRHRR

B1: C-terminally truncated mouse collagenase-3, M(1-265) (enzyme)
chain: not shown
notes: range 1-265; also called MMP-13 (1-265); truncated MMP-13; not shown: N-terminal 6×His purification tag of pET30
B1: the “percent of mouse collagenase-3 binding” value in assay [1] was determined as 99.4%.

B2: recombinant mouse collagenase-3 (mMMP-13, residues 1-472) (enzyme)
chain: not shown
modifications: ^125I-labeled where used as tracer
notes: not shown: N-terminal 6×His purification tag of pET30
What is called Kd is a measure of binding affinity in units of concentration. Read a low Kd as higher affinity. Consider B2, for which the Kd in assay [2] stood at 46.2 nM; in assay [3], 52.8 nM; in assay [5], 3.9 nM. In addition, in assay [1], the “percent of mouse collagenase-3 binding” value is 100%. For the same molecule, the “fold higher affinity compared to the low density lipoprotein receptor-related protein” value in assay [4] is around 10 fold.

B3: H/M(229-472) chimeric collagenase (enzyme)
chain: not shown
notes: 62 kDa; not shown: N-terminal 6×His purification tag of pET30
As for B3, the “percent of mouse collagenase-3 binding” value in assay [1] was 0%.

B4: HM/M(141-472) chimeric collagenase (enzyme)
chain: not shown
notes: as for B3
As for B4, the “percent of mouse collagenase-3 binding” value in assay [1] stood at 15.3%.

For the origin of these results see US6403637 (dated 2002).
